This data set addresses T1, ZBP1 (recombinant Z-DNA-binding protein) (UniProt Q9H171).
T1 sequence: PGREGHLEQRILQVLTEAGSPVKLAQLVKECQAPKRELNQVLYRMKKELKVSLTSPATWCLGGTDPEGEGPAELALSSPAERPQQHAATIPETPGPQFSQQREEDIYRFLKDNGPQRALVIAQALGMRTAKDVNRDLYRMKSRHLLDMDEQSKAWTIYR
Nature of the data set: BLI. Particulars: 10 mM MgCl2; kon 8.28e3 M-1 s-1, koff 4.68e-6 s-1; strands 1 and 2 circular; BLI: 1x PBS (10 mM phosphate) pH 7.2, 10 mM MgCl2, 0.1% BSA, 0.02% Tween-20, 25 C; EMSA: 10 mM phosphate pH 7.2, 10 mM MgCl2, 0.25 uM DNA, 6% PAGE (cc-91A) …. (In general: A gel shift assay detects complexes by their altered migration in electrophoresis.)

Broadly, the Kd is the constant that tells how readily two partners part at equilibrium. As to “CGTGTGATATAGGTGAACGCGCGTGTGTGTATATGTGTGCGATCGTAGAACTTGTGAACCCTTATACCATGCACGATCGCACATTTCGCACA / GCACACATATACACACACGCGCGTTCACCTATATCACACGTGACTTGTAATTAGTAACTACCAACGTGCGTGTGTGTCAGTCAGCGAAATGTGCGATCGTGCATGGTATAAGGGTTCACAAGTTCTACGATC / TTTTTACCTCACTATACTTACATGTTTTTTGGTAGTTACTAATTACAAGT [Bait-cc-91A (cc-91A + lB50)]”, the Kd stood at 0.566 nM.
